Target: CD3 on NFAT-RE-luc2-Jurkat cells (human, UniProt P07766 23-207)
Assay: cell-based or functional assay

Sequence of CD3 on NFAT-RE-luc2-Jurkat cells (P07766 23-207): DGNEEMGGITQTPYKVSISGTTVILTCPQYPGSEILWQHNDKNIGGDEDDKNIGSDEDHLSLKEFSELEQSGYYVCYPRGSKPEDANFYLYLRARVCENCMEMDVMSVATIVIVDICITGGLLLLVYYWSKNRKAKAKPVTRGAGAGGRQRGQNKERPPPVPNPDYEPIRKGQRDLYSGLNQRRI

| Binder | increase rate due to the protease treatment (luciferase, uPA-treated / untreated), antibody 0.1 nM [ratio] | increase rate due to the protease treatment (luciferase, uPA-treated / untreated), antibody 1 nM [ratio] |
| --- | --- | --- |
| hCE115HA/GLSuPA04//GCH065 (bispecific antibody, human IgG1, kappa, N297A) heavy 1: QVQLVESGGGVVQPGRSLRLSCAASGFTFSNAWMHWVRQAPGKGLEWVAQIKAKSNNYATYYAESVKGRFTISRDDSKNSLYLQMNSLKTEDTAVYYCRYVHYGAYYGVDAWGQGTTVTVSSASTKGPSVFPLAPSSKSTSGGTAALGCLVKDYFPEPVTVSWNSGALTSGVHTFPAVLQSSGLYSLSSVVTVPSSSLGTQTYICNVNHKPSNTKVDKKVEPKSCDKTHTCPPCPAPELRGGPKVFLFPPKPKDTLMISRTPEVTCVVVDVSHEDPEVKFNWYVDGVEVHNAKTKPREEQYASTYRVVSVLTVLHQDWLNGKEYKCKVSNKALPAPIEKTISKAKGQPREPQVYTLPPSRKEMTKNQVSLTCLVKGFYPSDIAVEWESNGQPENNYKTTPPYLDSDGSFFLYSKLTVDKSRWQQGNVFSCSVMHEALHNHYTQKSLSLSP light 1: QDGNEEMGGGSGGGSGGGSLSGRSDNHGGGSDIVMTQSPLSLPVTPGEPASISCRSSQSLVHSNRNTYLHWYQQKPGQAPRLLIYKVSNRFSGVPDRFSGSGSGTDFTLKISRVEAEDVGVYYCGQGTQVPYTFGQGTKLEIKRTVAAPSVFIFPPSDEQLKSGTASVVCLLNNFYPREAKVQWKVDNALQSGNSQESVTEQDSKDSTYSLSSTLTLSKADYEKHKVYACEVTHQGLSSPVTKSFNRGEC heavy 2: QVQLVQSGAEVKKPGASVTVSCKASGYTFTDYEMHWIRQPPGEGLEWIGAIDGPTPDTAYSEKFKGRVTLTADKSTSTAYMELSSLTSEDTAVYYCTRFYSYTYWGQGTLVTVSSASTKGPSVFPLAPSSKSTSGGTAALGCLVKDYFPEPVTVSWNSGALTSGVHTFPAVLQSSGLYSLSSVVTVPSSSLGTQTYICNVNHKPSNTKVDKKVEPKSCDKTHTCPPCPAPELRGGPKVFLFPPKPKDTLMISRTPEVTCVVVDVSHEDPEVKFNWYVDGVEVHNAKTKPREEQYASTYRVVSVLTVLHQDWLNGKEYKCKVSNKALPAPIEKTISKAKGQPREPQVYTLPPSREEMTKNQVSLTCLVKGFYPSDIAVEWESNGQPENNYKTTPPYLDSDGSFFLYSKLTVDKSRWQQGNVFSCSVMHEALHNHYTQESLSLSP light 2: DIVMTQSPLSLPVTPGEPASISCRSSQPLVHSNRNTYLHWYQQKPGQAPRLLIYKVSNRFSGVPDRFSGSGSGTDFTLKISRVEAEDVGVYYCGQGTQVPYTFGQGTKLEIKRTVAAPSVFIFPPSDEQLKSGTASVVCLLNNFYPREAKVQWKVDNALQSGNSQESVTEQDSKDSTYSLSSTLTLSKADYEKHKVYACEVTHQGLSSPVTKSFNRGEC | 1.1 | 8.2 |
| hCE115HA/GLSuPA27//GCH065 (bispecific antibody, human IgG1, kappa, N297A) heavy 1: QVQLVESGGGVVQPGRSLRLSCAASGFTFSNAWMHWVRQAPGKGLEWVAQIKAKSNNYATYYAESVKGRFTISRDDSKNSLYLQMNSLKTEDTAVYYCRYVHYGAYYGVDAWGQGTTVTVSSASTKGPSVFPLAPSSKSTSGGTAALGCLVKDYFPEPVTVSWNSGALTSGVHTFPAVLQSSGLYSLSSVVTVPSSSLGTQTYICNVNHKPSNTKVDKKVEPKSCDKTHTCPPCPAPELRGGPKVFLFPPKPKDTLMISRTPEVTCVVVDVSHEDPEVKFNWYVDGVEVHNAKTKPREEQYASTYRVVSVLTVLHQDWLNGKEYKCKVSNKALPAPIEKTISKAKGQPREPQVYTLPPSRKEMTKNQVSLTCLVKGFYPSDIAVEWESNGQPENNYKTTPPYLDSDGSFFLYSKLTVDKSRWQQGNVFSCSVMHEALHNHYTQKSLSLSP light 1: QDGNEEMGGITQTPYKVSISGTTVILTLSGRSDNHDIVMTQSPLSLPVTPGEPASISCRSSQSLVHSNRNTYLHWYQQKPGQAPRLLIYKVSNRFSGVPDRFSGSGSGTDFTLKISRVEAEDVGVYYCGQGTQVPYTFGQGTKLEIKRTVAAPSVFIFPPSDEQLKSGTASVVCLLNNFYPREAKVQWKVDNALQSGNSQESVTEQDSKDSTYSLSSTLTLSKADYEKHKVYACEVTHQGLSSPVTKSFNRGEC heavy 2: QVQLVQSGAEVKKPGASVTVSCKASGYTFTDYEMHWIRQPPGEGLEWIGAIDGPTPDTAYSEKFKGRVTLTADKSTSTAYMELSSLTSEDTAVYYCTRFYSYTYWGQGTLVTVSSASTKGPSVFPLAPSSKSTSGGTAALGCLVKDYFPEPVTVSWNSGALTSGVHTFPAVLQSSGLYSLSSVVTVPSSSLGTQTYICNVNHKPSNTKVDKKVEPKSCDKTHTCPPCPAPELRGGPKVFLFPPKPKDTLMISRTPEVTCVVVDVSHEDPEVKFNWYVDGVEVHNAKTKPREEQYASTYRVVSVLTVLHQDWLNGKEYKCKVSNKALPAPIEKTISKAKGQPREPQVYTLPPSREEMTKNQVSLTCLVKGFYPSDIAVEWESNGQPENNYKTTPPYLDSDGSFFLYSKLTVDKSRWQQGNVFSCSVMHEALHNHYTQESLSLSP light 2: DIVMTQSPLSLPVTPGEPASISCRSSQPLVHSNRNTYLHWYQQKPGQAPRLLIYKVSNRFSGVPDRFSGSGSGTDFTLKISRVEAEDVGVYYCGQGTQVPYTFGQGTKLEIKRTVAAPSVFIFPPSDEQLKSGTASVVCLLNNFYPREAKVQWKVDNALQSGNSQESVTEQDSKDSTYSLSSTLTLSKADYEKHKVYACEVTHQGLSSPVTKSFNRGEC | 1 | 2.3 |
| hCE115HA/GLSuPA20//GCH065 (bispecific antibody, human IgG1, kappa, N297A) heavy 1: QVQLVESGGGVVQPGRSLRLSCAASGFTFSNAWMHWVRQAPGKGLEWVAQIKAKSNNYATYYAESVKGRFTISRDDSKNSLYLQMNSLKTEDTAVYYCRYVHYGAYYGVDAWGQGTTVTVSSASTKGPSVFPLAPSSKSTSGGTAALGCLVKDYFPEPVTVSWNSGALTSGVHTFPAVLQSSGLYSLSSVVTVPSSSLGTQTYICNVNHKPSNTKVDKKVEPKSCDKTHTCPPCPAPELRGGPKVFLFPPKPKDTLMISRTPEVTCVVVDVSHEDPEVKFNWYVDGVEVHNAKTKPREEQYASTYRVVSVLTVLHQDWLNGKEYKCKVSNKALPAPIEKTISKAKGQPREPQVYTLPPSRKEMTKNQVSLTCLVKGFYPSDIAVEWESNGQPENNYKTTPPYLDSDGSFFLYSKLTVDKSRWQQGNVFSCSVMHEALHNHYTQKSLSLSP light 1: QDGNEEMGGITQTPYKVSISLSGRSDNHGGGSDIVMTQSPLSLPVTPGEPASISCRSSQSLVHSNRNTYLHWYQQKPGQAPRLLIYKVSNRFSGVPDRFSGSGSGTDFTLKISRVEAEDVGVYYCGQGTQVPYTFGQGTKLEIKRTVAAPSVFIFPPSDEQLKSGTASVVCLLNNFYPREAKVQWKVDNALQSGNSQESVTEQDSKDSTYSLSSTLTLSKADYEKHKVYACEVTHQGLSSPVTKSFNRGEC heavy 2: QVQLVQSGAEVKKPGASVTVSCKASGYTFTDYEMHWIRQPPGEGLEWIGAIDGPTPDTAYSEKFKGRVTLTADKSTSTAYMELSSLTSEDTAVYYCTRFYSYTYWGQGTLVTVSSASTKGPSVFPLAPSSKSTSGGTAALGCLVKDYFPEPVTVSWNSGALTSGVHTFPAVLQSSGLYSLSSVVTVPSSSLGTQTYICNVNHKPSNTKVDKKVEPKSCDKTHTCPPCPAPELRGGPKVFLFPPKPKDTLMISRTPEVTCVVVDVSHEDPEVKFNWYVDGVEVHNAKTKPREEQYASTYRVVSVLTVLHQDWLNGKEYKCKVSNKALPAPIEKTISKAKGQPREPQVYTLPPSREEMTKNQVSLTCLVKGFYPSDIAVEWESNGQPENNYKTTPPYLDSDGSFFLYSKLTVDKSRWQQGNVFSCSVMHEALHNHYTQESLSLSP light 2: DIVMTQSPLSLPVTPGEPASISCRSSQPLVHSNRNTYLHWYQQKPGQAPRLLIYKVSNRFSGVPDRFSGSGSGTDFTLKISRVEAEDVGVYYCGQGTQVPYTFGQGTKLEIKRTVAAPSVFIFPPSDEQLKSGTASVVCLLNNFYPREAKVQWKVDNALQSGNSQESVTEQDSKDSTYSLSSTLTLSKADYEKHKVYACEVTHQGLSSPVTKSFNRGEC | 1.6 | 3 |

Reference: patent US20220401557A1 (Chugai, published 2022)
